The source of these data is patent US20130189283A1.

The assay concerns the target Kv1.3 voltage-gated potassium channel on T cells in human whole blood (human) (UniProt P22001). The experiment in a line: cell-based or functional assay.

Where no end group is shown, it is not given here.

Chain of Kv1.3 voltage-gated potassium channel on T cells in human whole blood (human) (P22001 whole entry): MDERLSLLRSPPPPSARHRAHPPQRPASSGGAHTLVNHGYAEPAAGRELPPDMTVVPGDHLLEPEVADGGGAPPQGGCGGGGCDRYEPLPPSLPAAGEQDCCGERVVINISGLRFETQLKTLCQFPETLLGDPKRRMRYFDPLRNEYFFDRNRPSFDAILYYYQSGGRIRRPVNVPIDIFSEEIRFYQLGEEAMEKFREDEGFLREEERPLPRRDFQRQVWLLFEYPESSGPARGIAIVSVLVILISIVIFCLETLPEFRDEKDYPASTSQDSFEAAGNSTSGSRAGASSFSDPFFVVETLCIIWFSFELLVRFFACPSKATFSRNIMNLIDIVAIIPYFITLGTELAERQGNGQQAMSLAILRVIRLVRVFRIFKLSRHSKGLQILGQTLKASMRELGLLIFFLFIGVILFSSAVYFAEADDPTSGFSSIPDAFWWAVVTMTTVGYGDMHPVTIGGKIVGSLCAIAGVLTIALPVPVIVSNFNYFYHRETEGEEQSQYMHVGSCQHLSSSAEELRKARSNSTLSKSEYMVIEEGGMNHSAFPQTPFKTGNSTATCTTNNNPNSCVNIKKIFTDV

B1: Bivalent Fc-L10-ShK[2-35] homodimer (Fc fusion)
chain: GGGGSGGGGSSCIDTIPKSRCTAFQCKHSMKYRLSFCRKTCGTC
modifications: not fully specified (N-terminus); ends and bridges not checked; also: homodimer via Fc
In the case of B1, the Potency Relative to ShK (WB, IL2) was found to be 8.73 fold; the WB (IFNg) IC50 came out at 2.29 nM; the WB (IL-2) IC50 was determined as 0.585 nM.

B2: Bivalent Fc-L10-ShK[1-35] homodimer (Fc fusion)
chain: GGGGSGGGGSRSCIDTIPKSRCTAFQCKHSMKYRLSFCRKTCGTC
modifications: not fully specified (N-terminus); ends and bridges not checked; also: homodimer via Fc
Molecule B2 registered a Potency Relative to ShK (WB, IL2) of 5.76 fold; a WB (IFNg) IC50 of 0.32 nM; a WB (IL-2) IC50 of 0.386 nM.
